Data set [1] is described as follows: GFP fluorescence in D-type motor axons. Conditions: glycan lost; control: wild-type DDR-2::GFP.
Data set [2] can be described thus: anti-GFP IP, anti-phosphotyrosine blot (autophosphorylation) from worms. To be noted: glycan lost; control: wild-type DDR-2::GFP.

B1: DDR-2: N141A (protein)
parent chain: MKLLLYLFGVTFHSNTVVALELRECSHQLGMSNRKIRDEQISASSSFDLQSTGPQHARAHQESGSGAWCPKNQINSLSKEWLQISFSVDTVITSVETQGRFDDGRGMEYATAFKIQYWRPSLNAWASYKDDFELETIPANNDTEHAIRRHLDRAIIARRIRIVPVSNSTRTVCMRVEVFGCPFDDSLVFYNVDQGDLQSGISYHDFSYDGNLANSPHLTGGIGKLYDGEVGKNNVFVNHHKWVGWRRKRNGNVKLAFEFSELRNISGILIHTSNEFKKSAKAFSSATVLFSINGKDFSDTIVHFNNPEDTESEVPRWIRIPVNNRIAKVAKIRLNFGTDSDWLFISEVNFESNHTNIELLNDDVVIPDSVSYFSVTEHDDGTSMFAFIIFFFMFLIVAVIILTVLYRKREYRVKASSPSPNAKREILLTIDGNTIKHHVSPSTYQMARDNLQNALIEKMPMSPIISDYAEPDISVCSDVTANTPLLYGIDGPYDTQKRSNPLSSMVKYSDYGEVYCTTLPEIARDKLICVSRIGQGEFGEVDLCQLENRKVAVKKLHGISQADEFSFHREIRVLGSLKHPNVVEVVGVCTIQKPILCIMEYMENGDLKSYILKNPTIQTSQCISICTQLAAGLAYLESCNFVHRDIAARNCLVDGEGNVKIADFGMARSLYSQEYYKVEGKFVLPIRWMAWEALLLGKFSTASDVWGFGVTMWEIFSLCSEKPYSDMTDDDVVENLQSMSSTGSLKQVLSRPRMCPSKLYNEQILPCWNYESSRRPSFENVHLHLQSLVHTSPHIHF
As to B1, the localisation_or_trafficking entry in data set [1] is given as “no change”. For the same protein, in data set [2], the enzymatic_activity result is listed as “no change”.
